Read-outs that look alike come from different tables or passages of the source.
What was measured:
Experiment in all cases: EMSA
ΔN20C17-HMGA1a [1] = molecular target: T1, ΔN20C17-HMGA1a (human, UniProt P17096 21-91)
ΔN20C17-HMGA1b [2] = molecular target: T2, ΔN20C17-HMGA1b (human, UniProt P17096-2 21-80)
ΔN20C17-HMGA1a [3] = molecular target: T1, ΔN20C17-HMGA1a; remark: listed apart in the source
ΔN20C17-HMGA1a [4] = molecular target: T1, ΔN20C17-HMGA1a; remark: listed apart in the source
ΔN20C17-HMGA1a [5] = molecular target: T1, ΔN20C17-HMGA1a; remark: listed apart in the source
ΔN20C17-HMGA1b [6] = molecular target: T2, ΔN20C17-HMGA1b; remark: listed apart in the source
ΔN20C17-HMGA1a [7] = molecular target: T1, ΔN20C17-HMGA1a; remark: listed apart in the source
ΔN20C17-HMGA1a [8] = molecular target: T1, ΔN20C17-HMGA1a; remark: listed apart in the source

B1: A18-DNA (dsDNA)
DNA 1: CCCAAAAAAAAAAAAAAAAAACC
DNA 2: GGTTTTTTTTTTTTTTTTTTGGG
ΔN20C17-HMGA1a [1]
  binding result: binds

B2: A5T5-DNA (dsDNA)
DNA 1: CGAAAAATTTTTCG
DNA 2: CGAAAAATTTTTCG
ΔN20C17-HMGA1b [2]
  binding result: binds
ΔN20C17-HMGA1a [3]
  binding result: binds

B3: A9T9-DNA (dsDNA)
DNA 1: CGAAAAAAAAATTTTTTTTTCG
DNA 2: CGAAAAAAAAATTTTTTTTTCG
ΔN20C17-HMGA1a [4]
  binding result: binds

B4: A5-DNA (dsDNA)
DNA 1: GGCCCCGCGAAAAACCCGGCGGG
DNA 2: CCCGCCGGGTTTTTCGCGGGGCC
ΔN20C17-HMGA1a [5]
  binding result: binds

B5: A19-DNA (dsDNA)
DNA 1: CCCAAAAAAAAAAAAAAAAAAACC
DNA 2: GGTTTTTTTTTTTTTTTTTTTGGG
ΔN20C17-HMGA1b [6]
  binding result: binds
ΔN20C17-HMGA1a [7]
  binding result: binds

B6: T9A9-DNA (dsDNA)
DNA 1: GCTTTTTTTTTAAAAAAAAAGC
DNA 2: GCTTTTTTTTTAAAAAAAAAGC
ΔN20C17-HMGA1a [8]
  binding result: binds
